Measurements as given in PMC10636567.

Assays:
[1] = target: human LGI1–FLAG (leucine-rich, glioma inactivated 1 protein) (human) (UniProt O95970); test: co-IP; HEK293T co-transfected; lysis 24 h after transfection in 20 mM Tris-HCl pH 8.0, 1 mM EDTA, 0.5% Fos-Choline-14; PSD-95-FLAG or LGI1-FLAG precipitated with FLAG-M2 agarose, washed with 100 mM NaCl, 1% Triton X-100, eluted with FLAG peptide; western blot, band intensities; n = 3
rat PSD-95-FLAG (rat) = rat PSD-95-FLAG (rat) (UniProt P31016); test: as above
rat PSD-95-FLAG (rat), sequence (P31016 whole entry): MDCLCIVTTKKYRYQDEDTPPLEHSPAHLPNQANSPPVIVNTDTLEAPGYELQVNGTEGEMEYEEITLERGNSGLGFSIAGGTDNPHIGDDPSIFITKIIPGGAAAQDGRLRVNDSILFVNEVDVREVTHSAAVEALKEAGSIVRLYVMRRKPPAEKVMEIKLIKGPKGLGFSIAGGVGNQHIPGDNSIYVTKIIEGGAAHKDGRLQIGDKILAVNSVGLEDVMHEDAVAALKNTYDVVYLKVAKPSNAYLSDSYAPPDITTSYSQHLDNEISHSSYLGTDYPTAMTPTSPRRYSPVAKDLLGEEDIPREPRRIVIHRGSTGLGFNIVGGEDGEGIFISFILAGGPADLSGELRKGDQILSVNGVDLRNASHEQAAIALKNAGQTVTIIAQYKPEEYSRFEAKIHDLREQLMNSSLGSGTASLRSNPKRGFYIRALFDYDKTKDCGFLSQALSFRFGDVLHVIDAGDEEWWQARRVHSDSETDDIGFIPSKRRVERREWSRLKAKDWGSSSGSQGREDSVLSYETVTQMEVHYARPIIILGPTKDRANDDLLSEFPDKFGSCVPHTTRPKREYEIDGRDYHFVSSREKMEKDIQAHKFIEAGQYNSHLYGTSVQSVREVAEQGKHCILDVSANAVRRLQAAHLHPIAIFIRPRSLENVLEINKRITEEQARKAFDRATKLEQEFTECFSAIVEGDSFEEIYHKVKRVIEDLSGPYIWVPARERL

rat SAP102-GFP (rat) = rat SAP102-GFP (rat) (UniProt Q62936); test: co-IP; HEK293T co-transfected; GFP-tagged MAGUK proteins precipitated with anti-GFP antibody; western blot
rat SAP102-GFP (rat), sequence (Q62936 whole entry): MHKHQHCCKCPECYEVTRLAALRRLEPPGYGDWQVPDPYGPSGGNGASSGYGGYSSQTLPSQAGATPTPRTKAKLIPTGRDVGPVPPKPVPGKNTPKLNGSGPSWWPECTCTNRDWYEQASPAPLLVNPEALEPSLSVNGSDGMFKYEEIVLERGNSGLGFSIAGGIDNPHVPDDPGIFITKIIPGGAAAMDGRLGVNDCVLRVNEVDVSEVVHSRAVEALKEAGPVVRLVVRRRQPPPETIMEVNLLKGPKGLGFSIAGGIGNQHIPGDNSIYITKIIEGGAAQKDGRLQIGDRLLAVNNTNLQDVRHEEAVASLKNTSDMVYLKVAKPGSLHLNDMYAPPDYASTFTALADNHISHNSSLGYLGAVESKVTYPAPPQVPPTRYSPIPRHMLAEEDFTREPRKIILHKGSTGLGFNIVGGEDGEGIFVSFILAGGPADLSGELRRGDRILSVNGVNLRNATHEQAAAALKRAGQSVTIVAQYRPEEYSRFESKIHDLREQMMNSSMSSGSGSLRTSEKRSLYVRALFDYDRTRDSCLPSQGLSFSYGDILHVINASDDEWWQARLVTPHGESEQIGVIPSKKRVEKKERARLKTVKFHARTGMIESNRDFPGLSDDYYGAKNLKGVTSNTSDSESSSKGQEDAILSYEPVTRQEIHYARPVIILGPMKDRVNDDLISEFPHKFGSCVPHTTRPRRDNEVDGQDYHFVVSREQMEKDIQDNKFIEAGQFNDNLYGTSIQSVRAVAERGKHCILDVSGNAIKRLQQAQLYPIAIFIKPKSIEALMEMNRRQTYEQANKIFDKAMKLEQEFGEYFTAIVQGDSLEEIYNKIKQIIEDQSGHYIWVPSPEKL

rat PSD-93-GFP (rat) = rat PSD-93-GFP (rat) (UniProt Q63622); test: as above
rat PSD-93-GFP (rat), sequence (Q63622 whole entry): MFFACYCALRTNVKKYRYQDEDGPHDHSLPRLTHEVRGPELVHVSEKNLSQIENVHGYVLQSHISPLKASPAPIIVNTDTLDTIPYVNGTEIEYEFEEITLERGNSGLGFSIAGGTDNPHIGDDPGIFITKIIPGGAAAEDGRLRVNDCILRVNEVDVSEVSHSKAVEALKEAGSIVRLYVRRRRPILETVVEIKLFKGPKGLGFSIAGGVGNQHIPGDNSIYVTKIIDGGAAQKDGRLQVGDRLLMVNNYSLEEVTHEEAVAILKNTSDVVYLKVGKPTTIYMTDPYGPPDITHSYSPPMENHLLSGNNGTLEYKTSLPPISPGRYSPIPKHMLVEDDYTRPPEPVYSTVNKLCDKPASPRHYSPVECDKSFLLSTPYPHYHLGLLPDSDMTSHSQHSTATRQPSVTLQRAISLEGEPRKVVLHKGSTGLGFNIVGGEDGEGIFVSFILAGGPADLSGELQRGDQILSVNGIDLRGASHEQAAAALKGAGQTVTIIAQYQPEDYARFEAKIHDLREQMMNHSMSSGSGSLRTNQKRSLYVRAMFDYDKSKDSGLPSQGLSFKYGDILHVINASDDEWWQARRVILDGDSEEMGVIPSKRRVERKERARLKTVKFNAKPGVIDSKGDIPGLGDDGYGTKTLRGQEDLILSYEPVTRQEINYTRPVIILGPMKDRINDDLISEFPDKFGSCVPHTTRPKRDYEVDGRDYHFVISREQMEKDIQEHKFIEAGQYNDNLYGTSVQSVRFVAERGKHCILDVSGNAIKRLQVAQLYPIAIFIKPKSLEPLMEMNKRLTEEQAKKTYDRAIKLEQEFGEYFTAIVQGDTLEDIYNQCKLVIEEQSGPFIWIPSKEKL

human LGI1–FLAG (leucine-rich, glioma inactivated 1 protein) (human), sequence (O95970 35-557): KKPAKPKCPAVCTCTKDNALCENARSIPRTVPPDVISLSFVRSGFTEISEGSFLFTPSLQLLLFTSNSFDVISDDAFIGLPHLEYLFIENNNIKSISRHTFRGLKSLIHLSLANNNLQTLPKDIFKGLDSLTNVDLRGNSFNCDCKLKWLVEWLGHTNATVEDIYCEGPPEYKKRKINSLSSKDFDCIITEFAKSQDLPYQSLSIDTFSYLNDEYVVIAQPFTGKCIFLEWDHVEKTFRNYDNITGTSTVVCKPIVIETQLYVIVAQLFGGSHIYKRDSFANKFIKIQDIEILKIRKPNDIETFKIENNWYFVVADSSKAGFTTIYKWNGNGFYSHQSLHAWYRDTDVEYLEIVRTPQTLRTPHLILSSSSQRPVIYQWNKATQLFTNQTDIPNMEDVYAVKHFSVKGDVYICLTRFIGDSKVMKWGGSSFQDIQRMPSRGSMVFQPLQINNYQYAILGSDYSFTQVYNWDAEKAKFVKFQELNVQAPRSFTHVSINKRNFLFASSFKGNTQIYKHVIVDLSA

co-immunoprecipitated amount, percent of wild type [1] | co-immunoprecipitated amount, percent of wild type (rat PSD-95-FLAG (rat)) | co-immunoprecipitated amount, percent of wild type (rat SAP102-GFP (rat)) | co-immunoprecipitated amount, percent of wild type (rat PSD-93-GFP (rat)) | Substance
40% | – | – | – | ADAM22 C401Y variant (from UniProt Q9P0K1 26-906) (receptor)
75% | 20% | 20% | 20% | human ADAM22 S905F variant (from UniProt Q9P0K1-1 26-906) (receptor)
